The Kd is the equilibrium constant for the complex coming apart.

Data set [1] concerns the target SPD_1495 (33-442 AA), recombinant, GST tag removed (S. pneumoniae D39). Kind of data set: SPR; SPD_1495 (30 ug/ml) fixed on a NanoGold-COOH sensor chip by capture coupling; ComE^D58E injected at 100, 200, 400, 800 and 1,600 nmol/liter in 0.01 M PBS; Open-SPR (Nicoya), 25°C; association and dissociation 300 s each; one-to-one diffusion-corrected model, TraceDrawer. A general note: Surface plasmon resonance follows binding to a sensor surface in real time, without labels.

For data set [2], the target named is T1, SPD_1495 (Streptococcus pneumoniae D39) (UniProt A0A0H2ZL68).
T1 sequence: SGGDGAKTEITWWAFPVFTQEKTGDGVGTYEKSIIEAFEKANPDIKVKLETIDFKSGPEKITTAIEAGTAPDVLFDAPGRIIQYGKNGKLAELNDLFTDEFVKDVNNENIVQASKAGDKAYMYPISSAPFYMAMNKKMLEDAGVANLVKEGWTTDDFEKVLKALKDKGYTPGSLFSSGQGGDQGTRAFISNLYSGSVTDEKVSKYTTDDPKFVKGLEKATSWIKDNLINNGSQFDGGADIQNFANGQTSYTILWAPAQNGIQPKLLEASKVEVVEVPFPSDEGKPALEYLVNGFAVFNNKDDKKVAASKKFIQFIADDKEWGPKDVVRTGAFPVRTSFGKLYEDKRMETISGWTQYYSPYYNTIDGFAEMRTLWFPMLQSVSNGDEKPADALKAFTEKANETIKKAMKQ
The data set is described as follows: EMSA. On the technique in general: In EMSA bound probe runs differently from free probe, usually more slowly.

For “ComE^D58E, phosphomimetic mutant of the response regulator ComE (natural protein)”, in data set [1], the dissociation constant (Kd) amounted to 1550 nM.

As for “TACACATCTGCTTCTAAAATATTGTTAGAAAACGATTTGACTGTCCTGATCAATTTGTCATGTTCTTATTTCATTTTACTATATTTTTGGTTCGCGGGAAGTCTACTAAGATACTTAAAGATGCAGATAGTGAAAAAAGGTGTAGACATTACCGTAAAAAAGTGATATAATCGTAAGATGTTCAATGTATAGGTGTTAATCATGAGTAGACGTTTTAA (double strand) [Bio-cps (cps upstream promoter)]”, the binding result in data set [2] is recorded as “no binding”.
